Blank lines part the entries; values can stand above or below the binder they belong to.
Legend:
重组人FcrRIIb = target: T1, 重组人FcrRIIb (human, UniProt P31994 43-217, limits assumed); assay: BLI, His-tagged Fc receptor captured on anti-penta-His biosensor, antibody in solution
T1 construct: Recombinant, histidine-tagged, captured on anti-penta-His biosensor; also called FcγRIIb; not shown: histidine tag
T1 sequence (looked up): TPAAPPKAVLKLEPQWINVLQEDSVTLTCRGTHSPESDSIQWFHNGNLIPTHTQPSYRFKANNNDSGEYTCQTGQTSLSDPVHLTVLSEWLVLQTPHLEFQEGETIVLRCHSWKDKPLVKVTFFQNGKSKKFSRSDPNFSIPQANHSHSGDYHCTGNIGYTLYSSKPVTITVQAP

KIT (野生型KIT, M-07e细胞) = KIT (野生型KIT, M-07e细胞) (UniProt P10721 26-976, limits assumed); assay: cell-based or functional assay
重组人FcrRIIa = target: T2, 重组人FcrRIIa (human, UniProt P12318 36-218, limits assumed); assay: BLI, His-tagged Fc receptor captured on anti-penta-His biosensor, antibody in solution
T2 construct: Recombinant, histidine-tagged, captured on anti-penta-His biosensor; also called FcγRIIa; not shown: histidine tag
T2 sequence (looked up): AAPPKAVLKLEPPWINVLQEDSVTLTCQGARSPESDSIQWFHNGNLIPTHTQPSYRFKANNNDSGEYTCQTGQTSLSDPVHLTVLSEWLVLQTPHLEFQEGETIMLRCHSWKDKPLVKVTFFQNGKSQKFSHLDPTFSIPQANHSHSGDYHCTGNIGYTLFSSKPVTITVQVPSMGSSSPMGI

重组人FcrRI = target: T3, 重组人FcrRI (human, UniProt P12314 16-288, limits assumed); assay: as above
T3 construct: Recombinant, histidine-tagged, captured on anti-penta-His biosensor; also called FcγRI; FcgRI; not shown: histidine tag

重组人FcrRIIIb = target: T4, 重组人FcrRIIIb (human, UniProt O75015 17-200); assay: as above
T4 construct: Recombinant, histidine-tagged, captured on anti-penta-His biosensor; also called FcγRIIIb; not shown: histidine tag

重组人FcrRIIIa = target: T5, 重组人FcrRIIIa (human, UniProt P08637 17-208); assay: as above
T5 construct: Recombinant, histidine-tagged, captured on anti-penta-His biosensor; also called FcγRIIIa; not shown: histidine tag
T5 sequence (P08637 17-208 limits assumed): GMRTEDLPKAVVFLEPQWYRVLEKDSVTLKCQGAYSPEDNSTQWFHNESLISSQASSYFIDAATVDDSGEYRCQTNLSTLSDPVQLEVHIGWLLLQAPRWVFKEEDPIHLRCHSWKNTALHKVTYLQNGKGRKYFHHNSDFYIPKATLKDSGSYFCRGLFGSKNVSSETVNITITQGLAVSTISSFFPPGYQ

Sequence of KIT (野生型KIT, M-07e细胞) (P10721 26-976 limits assumed): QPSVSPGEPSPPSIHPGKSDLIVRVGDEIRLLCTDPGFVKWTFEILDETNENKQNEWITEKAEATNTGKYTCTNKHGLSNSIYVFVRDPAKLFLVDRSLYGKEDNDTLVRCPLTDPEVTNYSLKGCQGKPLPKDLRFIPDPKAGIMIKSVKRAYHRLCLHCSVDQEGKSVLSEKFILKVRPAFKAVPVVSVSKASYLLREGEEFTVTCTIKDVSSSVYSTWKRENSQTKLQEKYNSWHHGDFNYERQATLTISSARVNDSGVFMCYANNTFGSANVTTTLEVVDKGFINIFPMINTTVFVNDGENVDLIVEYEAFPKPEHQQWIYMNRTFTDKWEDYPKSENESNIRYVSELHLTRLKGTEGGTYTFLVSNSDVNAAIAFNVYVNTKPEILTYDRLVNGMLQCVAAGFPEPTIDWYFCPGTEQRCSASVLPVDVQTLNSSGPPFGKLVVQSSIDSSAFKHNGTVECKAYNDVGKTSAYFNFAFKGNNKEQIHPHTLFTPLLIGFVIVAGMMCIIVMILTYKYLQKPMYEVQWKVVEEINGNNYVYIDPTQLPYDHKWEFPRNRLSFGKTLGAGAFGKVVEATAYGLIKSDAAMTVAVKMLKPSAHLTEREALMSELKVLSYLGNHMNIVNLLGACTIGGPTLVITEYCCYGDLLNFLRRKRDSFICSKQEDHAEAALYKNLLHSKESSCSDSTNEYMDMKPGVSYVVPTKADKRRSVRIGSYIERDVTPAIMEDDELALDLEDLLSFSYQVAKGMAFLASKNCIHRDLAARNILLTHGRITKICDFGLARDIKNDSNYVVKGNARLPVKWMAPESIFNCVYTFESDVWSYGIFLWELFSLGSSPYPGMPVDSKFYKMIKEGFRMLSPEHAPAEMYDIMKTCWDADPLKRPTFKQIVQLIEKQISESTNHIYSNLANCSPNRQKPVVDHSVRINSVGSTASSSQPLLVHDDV
T3 sequence (P12314 16-288 limits assumed): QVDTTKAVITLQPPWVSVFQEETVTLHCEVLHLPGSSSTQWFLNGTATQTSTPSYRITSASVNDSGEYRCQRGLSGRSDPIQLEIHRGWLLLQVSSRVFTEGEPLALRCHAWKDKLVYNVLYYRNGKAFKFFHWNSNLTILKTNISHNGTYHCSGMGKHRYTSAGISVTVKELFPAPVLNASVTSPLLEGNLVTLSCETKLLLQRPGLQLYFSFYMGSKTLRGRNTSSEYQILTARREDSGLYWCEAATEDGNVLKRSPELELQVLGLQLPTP
T4 sequence (O75015 17-200 limits assumed): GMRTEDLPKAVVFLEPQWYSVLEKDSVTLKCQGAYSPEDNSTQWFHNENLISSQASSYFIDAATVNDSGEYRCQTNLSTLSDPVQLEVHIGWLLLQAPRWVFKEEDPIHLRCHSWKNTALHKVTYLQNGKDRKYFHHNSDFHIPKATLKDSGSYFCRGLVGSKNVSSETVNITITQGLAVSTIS

binding result (重组人FcrRIIb): no binding
B1: mAbc (antibody)
VH: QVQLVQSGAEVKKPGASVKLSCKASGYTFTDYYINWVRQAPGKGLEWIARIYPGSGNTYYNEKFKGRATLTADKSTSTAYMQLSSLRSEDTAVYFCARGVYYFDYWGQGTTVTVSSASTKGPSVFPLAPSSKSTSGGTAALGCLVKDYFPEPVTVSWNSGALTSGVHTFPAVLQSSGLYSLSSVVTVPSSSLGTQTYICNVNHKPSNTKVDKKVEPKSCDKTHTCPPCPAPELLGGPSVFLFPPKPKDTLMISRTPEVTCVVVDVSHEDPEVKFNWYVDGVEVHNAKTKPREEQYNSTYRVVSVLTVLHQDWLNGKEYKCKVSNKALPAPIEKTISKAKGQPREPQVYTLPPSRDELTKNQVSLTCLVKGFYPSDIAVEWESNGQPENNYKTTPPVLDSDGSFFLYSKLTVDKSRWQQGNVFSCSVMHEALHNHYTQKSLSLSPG
VL: DIVMTQSPSSLSASVGDRVTITCKASQNVRTNVAWYQQKPGKAPKALIYSASYRYSGVPDRFTGSGSGTDFTLTISSLQPEDFADYFCQQYNSYPRTFGGGTKVEIKRTVAAPSVFIFPPSDEQLKSGTASVVCLLNNFYPREAKVQWKVDNALQSGNSQESVTEQDSKDSTYSLSSTLTLSKADYEKHKVYACEVTHQGLSSPVTKSFNRGEC
notes: also called 具有相同可变区序列但是未突变的(野生型)人IgG1序列的相应抗体; 具有野生型(未突变)IgG1 Fc域的相应抗体; copies: 2 + 2

SCF-依赖性M-07e细胞增殖的抑制, 平均IC50 (KIT (野生型KIT, M-07e细胞)): 1.11 nM | binding result (重组人FcrRIIa): no binding (tested: 500nM) | binding result (重组人FcrRI): no binding (tested: 500nM) | binding result (重组人FcrRIIIb): no binding (tested: 500nM) | binding result (重组人FcrRIIIa): no binding (tested: 500nM) | binding result (重组人FcrRIIb): no binding (tested: 500nM)
B2: mAb1 (antibody, human IgG1, kappa)
heavy: QVQLVQSGAEVKKPGASVKLSCKASGYTFTDYYINWVRQAPGKGLEWIARIYPGSGNTYYNEKFKGRATLTADKSTSTAYMQLSSLRSEDTAVYFCARGVYYFDYWGQGTTVTVSSASTKGPSVFPLAPSSKSTSGGTAALGCLVKDYFPEPVTVSWNSGALTSGVHTFPAVLQSSGLYSLSSVVTVPSSSLGTQTYICNVNHKPSNTKVDKKVEPKSCDKTHTCPPCPAPEAQGGPSVFLFPPKPKDTLYITREPEVTCVVVDVSHEDPEVKFNWYVDGVEVHNAKTKPREEQYNSTYRVVSVLTVLHQDWLNGKEYKCQVSNKALPAPIEKTISKAKGQPREPQVYTLPPSRDELTKNQVSLTCLVKGFYPSDIAVEWESNGQPENNYKTTPPVLDSDGSFFLYSKLTVDKSRWQQGNVFSCSVMHEALHNHYTQKSLSLSPG
light: B1 VL
notes: also called 抗-KIT抗体mAb1; Fc突变的抗-KIT抗体; copies: 2 + 2
